Laboratory results reported in publication PMC11381329 (Nucleic Acids Research, 2024).

Target: T1, GST-UTP13^1–320 (human, UniProt Q12788 1-320)
T1 sequence: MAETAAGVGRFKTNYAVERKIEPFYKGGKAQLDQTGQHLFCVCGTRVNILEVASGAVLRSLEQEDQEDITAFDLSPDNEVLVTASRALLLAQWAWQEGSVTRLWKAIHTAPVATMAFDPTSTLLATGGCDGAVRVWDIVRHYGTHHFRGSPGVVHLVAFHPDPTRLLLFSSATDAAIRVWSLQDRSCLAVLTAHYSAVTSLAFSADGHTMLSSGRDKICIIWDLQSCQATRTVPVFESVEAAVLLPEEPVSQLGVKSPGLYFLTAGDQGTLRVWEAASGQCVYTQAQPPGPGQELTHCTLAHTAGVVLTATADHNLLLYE
Assay: pull-down

B1: HIS-UTP3^1–319 (domain or fragment)
chain: MVGRSRRRGAAKWAAVRAKAGPTLTDENGDDLGLPPSPGDTSYYQDQVDDFHEARSRAALAKGWNEVQSGDEEDGEEEEEEVLALDMDDEDDEDGGNAGEEEEEENADDDGGSSVQSEAEASVDPSLSWGQRKKLYYDTDYGSKSRGRQSQQEAEEEEREEEEEAQIIQRRLAQALQEDDFGVAWVEAFAKPVPQVDEAETRVVKDLAKVSVKEKLKMLRKESPELLELIEDLKVKLTEVKDELEPLLELVEQGIIPPGKGSQYLRTKYNLYLNYCSNISFYLILKARRVPAHGHPVIERLVTYRNLINKLSVVDQKLS
binding result: binds
